Earlier results in patent US20210137911A1, “NOVEL CHRONOTHERAPY BASED ON CIRCADIAN RHYTHMS” (THE TRUSTEES OF THE UNIVERSITY OF PENNSYLVANIA, priority 2014, published 2021).

B1: Filgrastim (protein, chains of the INN, looked up)
chain: MTPLGPASSLPQSFLLKCLEQVRKIQGDGAALQEKLCATYKLCHPEELVLLGHSLGIPWAPLSSCPSQALQLAGCLSQLHSGLFLYQGLLQALEGISPELGPTLDTLQLDVADFATTIWQQMEELGMAPALQPTQGAMPAFASAFQRRAGGVLVASHLQSFLEVSYRVLRHLAQP
modifications: N-terminal methionine
B2: Idursulfase (protein, UniProt P22304 34-455; P22304 456-550, looked up)
Iduronate 2-sulfatase 42 kDa …: TDALNVLLIIVDDLRPSLGCYGDKLVRSPNIDQLASHSLLFQNAFAQQAVCAPSRVSFLTGRRPDTTRLYDFNSYWRVHAGNFSTIPQYFKENGYVTMSVGKVFHPGISSNHTDDSPYSWSFPPYHPSSEKYENTKTCRGPDGELHANLLCPVDVLDVPEGTLPDKQSTEQAIQLLEKMKTSASPFFLAVGYHKPHIPFRYPKEFQKLYPLENITLAPDPEVPDGLPPVAYNPWMDIRQREDVQALNISVPYGPIPVDFQRKIRQSYFASVSYLDTQVGRLLSALDDLQLANSTIIAFTSDHGWALGEHGEWAKYSNFDVATHVPLIFYVPGRTASLPEAGEKLFPYLDPFDSASQLMEPGRQSMDLVELVSLFPTLAGLAGLQVPPRCPVPSFHVELCREGKNLLKHFRFRDLEEDPYLPG
Iduronate 2-sulfatase 14 kDa …: NPRELIAYSQYPRPSDIPQWNSDKPSLKDIKIMGYSIRTIDYRYTVWVGFNPDEFLANFSDIHAGELYFVDSDPLQDHNMYNDSQGGDLFQLLMP
B3: Tenecteplase (protein, UniProt P00750 36-562, looked up, variant T103N N117Q K296A H297A R298A R299A)
Tissue-type plasminogen …: SYQVICRDEKTQMIYQQHQSWLRPVLRSNRVEYCWCNSGRAQCHSVPVKSCSEPRCFNGGTCQQALYFSDFVCQCPEGFAGKCCEIDTRATCYEDQGISYRGNWSTAESGAECTNWQSSALAQKPYSGRRPDAIRLGLGNHNYCRNPDRDSKPWCYVFKAGKYSSEFCSTPACSEGNSDCYFGNGSAYRGTHSLTESGASCLPWNSMILIGKVYTAQNPSAQALGLGKHNYCRNPDGDAKPWCHVLKNRRLTWEYCDVPSCSTCGLRQYSQPQFRIKGGLFADIASHPWQAAIFAAAAASPGERFLCGGILISSCWILSAAHCFQERFPPHHLTVILGRTYRVVPGEEEQKFEVEKYIVHKEFDDDTYDNDIALLQLKSDSSRCAQESSVVRTVCLPPADLQLPDWTECELSGYGKHEALSPFYSERLKEAHVRLYPSSRCTSQHLLNRTVTDNMLCAGDTRSGGPQANLHDACQGDSGGPLVCLNDGRMTLVGIISWGLGCGQKDVPGVYTKVTNYLDWIRDNMRP

Details: in vivo

| Molecule | ½ Life |
| --- | --- |
| B1 | 3.5 h |
| B2 | 0.733 h |
| B3 | 1.9 h |
